Results as given in PMC2964344.

Details: methylation at K27

histone H3: ATXR6 Y243N (SET-domain catalytic mutant) expressed in atxr5 atxr6
other: changes
